Results: the DeepSol protein solubility set

test: soluble on expression in E. coli; label from the status in PepcDB or PDB records

| Sequence | soluble on expression in E. coli |
| --- | --- |
| DDNERLSKVEKARQLREQVNDLFSRKFGEAIGMGFPVKVPYRKITINPGCVVVDGMPPGVSFKAPSYLEISSMRRILDSAEFIKFTVIRPFPGLVINNQLV | soluble |
| MGHHHHHHSHMVVLRAGKKTFLPALCRAFACRGCQLAPERGAERRDTAPSGVSRFCPPRKSCHDWIGPPDKYSNLRPVHFYIPENESPLEQKLRKLRQETQEWNQQFWANQNLTFSKEKEEFIHSRLKTKGLGLRTESGQKATLNAEEMADFYKEFLSKNFQKHMYYNRDWYKRNFAITFFMGKVALERIWNKLKQKQKKRSN | not soluble |
| MDDLADCREVFAYFDSKGDERISVQQVGDVLRALGQNPTEAEIHKCVGSFDREARLSFEDFVPIFQSVSKNREKHTVEEFVEGLSHFDKEGNGMINVAELRHLLTTLGERLSDEDVDQLLSGHNDSHGNVNISDFVRAVMNS | soluble |
| MITILGAGKVGMATAVMLMMRGYDDLLLIARTPGKPQGEALDLAHAAAELGVDIRISGSNSYEDMRGSDIVLVTAGIGRKPGMTREQLLEANANTMADLAEKIKAYAKDAIVVITTNPVDAMTYVMYKKTGFPRERVIGFSGILDSARMAYYISQKLGVSFKSVNAIVLGMHGQKMFPVPRLSSVGGVPLEHLMSKEEIEEVVSETVNAGAKITELRGYSSNYGPAAGLVLTVEAIKRDSKRIYPYSLYLQGEYGYNDIVAEVPAVIGKSGIERIIELPLTEDEKRKFDEAVQAVKKLVETLPPQLRE | soluble |
| MVQELLKQLQNGEAKFADVLAYIESRFEHQPTAFKNGQQQNAATENQGSAKVFSLAQIEGLNQTETLSLFAEHYAAVLNTPEGTDHQNIRQFMQHGWDGVTFEGEALQAK | not soluble |
| MRCPKCNYHKSSVVDSRQAEDGNTIRRRRECEQCHTRFTTFERVEELPLLVIKKDGTREQFSRDKILNGVVQSAQKRPVSSTDIENVISRIEQEVRTTYENEVSSTAIGNLVMDELAELDEITYVRFASVYKSFKDVDEIEELLQQITNRVRGKKKRLNNDETN | not soluble |
| MELKNSISDYTETEFKKIIEDIINCEGDEKKQDDNLEHFISVTEHPSGSDLIYYPEGNNDGSPEAVIKEIKEWRAANGKSGFKQG | soluble |
| MLIVGINGSPKKEGNTKYLINTVLEEAKSQGVETMVLEVGELLNSVKNPFCVVCSNPCSSICYKGTKLEEAYEILKKADAIVMGSPVYFGSVSAQLKAFFDKTRKLRSEKALYNKFACGVTVGGARFGGQETTMKALHDIMLVHGMTIVGDGYVGDDCGHHGVCAQQPADKDEFAIKRAKILGRRLVDVCKKAGALEHHHHHH | soluble |
| MGSDKIHHHHHHAQTDSMLIRPTVDKRVELLSIIFRLTGNPEYNRNDFKLYTDRIESHFSPYKNHELISFARSLVKTDGVSYDAVMSMAINLDNQFNLPADYGSLDSRWNRNQVGPFIKLLKKFVKDSRFDAFYHSNENLYQEAVSRFMPIYKSIDTQWYNDFYGQKSNDRFHIILSMSNGPGNYGPSVTDKENVHNVFSVMGAWVTDSVGMVVYPPELILPILIHEFNHSFINFDPEMFRTSGEQIYAAVGEQMARQAYGQWSIVLTEAMVRAAVIKYMKDHNFPAVEITKETVIQKTRGFVWISKLVDELEKYSSDRTTYPTLNSYMPRLAEAYTGFAQYTANYDSIRPKVVSIDEFTNGDTTVRSDIKTITVHFDRPLVGRGHSFNYGHLGMEAMPKIINVNYANDNRTVIIGVELLPGKEYGITLLGLSFRTPEGDAIKPYEISFKTAE | not soluble |
| MAHHHHHHMSTNISPNIKKGGVTAADLMQLQGAALRLRSQCTQREADNRRLTQKLREYEEQLFFLRANELILRKQVSVWSSYHRLFAQPLYEARLAVERYKHEAHQSLVHEMQVDRQRRSSLANAANEKRERERAGLQARLRQLQELQDEKRKKNEELELRLRRASEESLRAQKQASKLKDELAYCMDRLEESERERERVKRHLSEHEAALLKARHNVAGMGHFEEEIRSRDTVIAQLQRTVRELNTIMAQQSASRLEEANGENTPPQHEAEEKKLAASPQRLLNDSCDSEWVLKQSIGWFRSKMEREMKPSTPRRQMFEPCSSSAHPAPSLSSFSWMEGRCDSGDVDLQEFLSRELQAPLL | not soluble |
| NTKPENDLERAKRKNERAKARCVGITFETRPDYAREEHIREMLRFGGTKVELGVQSLYDDVLERIKRGHGVKEVAEATRLLRDSAFKVGYHIMPGLPGSSFERDLRMFRELFENDSFKPDYLKIYPTLVVEGTELYEMWKRGEYEPYTTEEVVELIVMAKRRFPE | not soluble |
| GHMEERVLGMPAVESNMFPLGKQAPPFALTNVIDGNVVRLEDVKSDAATVIMFICNHCPFVKHVQHELVRLANDYMPKGVSFVAINSNDAEQYPEDSPENMKKVAEELGYPFPYLYDETQEVAKAYDAACTPDFYIFDRDLKCVYRGQLDDSRPNNGIPVTGESIRAALDALLEGRPVPEKQKPSIGCSIKWKPSA | soluble |
| MKPLLETIDTRFGTTNKHAFSRGNTLPYTGVPFGMNYFVPQTSDQDGSWFFDPHLPIFQGIRLTHQPSPWIGDYSWLLLTPVTSQLGGDSLFHRQSSYDIDKACFQPHYLKLFSLRYQIETQLTPTCYGASIRLNQKQGKALSLYLHAADELTVEQVDKRTLALRQEGKTETNKNSLTMFTLEHHHHHH | not soluble |
| MSDLQKLQRFSTCDISDGLLNVYNIPTGGYFPNLTAISPPQNSSIVGTAYTVLFAPIDDPRPAVNYIDSVPPNSILVLALEPHLQSQFHPFIKITQAMYGGLMSTRAQYLKSNGTVVFGRIRDVDEHRTLNHPVFAYGVGSCAPKAVVKAVGTNVQLKILTSDGVTQTICPGDYIAGDNNGIVRIPVQETDISKLVTYIEKSIEVDLLVSEDIKNGIPAKQAQNDRRSVLKKYIHHHHHH | soluble |
| MQDLGEVEEDPTELRIDVRHGFDTGPMNVQIAQLMQLATGRRRAPRQSSGSGIQLKIGGRIEVLSYQRKMHEAMKYLLGRLFGGKTVKVNHLAIGCKTILRIPTSFKLHVENLEILDTNTYNNMETVRLMIEASSLPLNMVKFRPTNFTTNNHPIVRTARMLYIHATSTRRRFRDFIEALARLKNIRVHVESRDLSSGSWYMTVFRCWMRYGKKVGTYYTFGTTEETINSAMKVFGRLYGSRTGFDGQITINLKKTSQVVIRKVQQENEWILGMKVESR | not soluble |
| MSIISTKYLLQDAQANGYAVPAFNIHNAETIQAILEVCSEMRSPVILAGTPGTFKHIALEEIYALCSAYSTTYNMPLALHLDHHESLDDIRRKVHAGVRSAMIDGSHFPFAENVKLVKSVVDFCHSQDCSVEAELGRLGGVEDDMSVDAESAFLTDPQEAKRFVELTGVDSLAVAIGTAHGLYSKTPKIDFQRLAEIREVVDVPLVLHGASDVPDEFVRRTIELGVTKVNVATELKIAFAGAVKAWFAENPQGNDPRYYMRVGMDAMKEVVRNKINVCGSANRISA | soluble |
| MGSDKIHHHHHHMASFVDKLHPLVLNIGLAIHNADWNWKNVNSPFTRLYYVTEGTAQVLISGKTQILKANHMYFIPAFTKHSYICNSYFSHYYLHIYEEHQSDSNLLDNWDFPIEIPAVEIDLALFQRLCTINPHMTLQKSDPTSYDNNYTLMQNLLKNKQRTLSDKIESRGIVYQLLARFLKRAQVKMELKDNRIEEAIHYIRKHINETIDLRVLAENSCLSKDHFIRLFKKETGDTPLKYINRKKIEKAQLILITDDMSIKNVALNLAFEDYSYFNRLFKKITGITPQEYRTSYHS | not soluble |
| MASWSHPQFEKGASTSLYKKAGLMDSQRSTLVHWFRKGLRLHDNPALSHIFTAANAAPGRYFVRPIFILDPGILDWMQVGANRWRFLQQTLEDLDNQLRKLNSRLFVVRGKPAEVFPRIFKSWRVEMLTFETDIEPYSVTRDAAVQKLAKAEGVRVETHCSHTIYNPELVIAKNLGKAPITYQKFLGIVEQLKVPKVLGVPEKLKNMPTPPKDEVEQKDSAAYDCPTMKQLVKRPEELGPNKFPGGETEALRRMEESLKDEIWVARFEKPNTAPNSLEPSTTVLSPYLKFGCLSARLFNQKLKEIIKRQPKHSQPPVSLIGQLMWREFYYTVAAAEPNFDRMLGNVYCMQIPWQEHPDHLEAWTHGRTGYPFIDAIMRQLRQEGWIHNLARHAVACFLTRGDLWISWEEGQRVFEQLLLDQDWALNAGNWMWLSASAFFHQYFRVYSPVAFGKKTDPQGHYIRKYVPELSKYPAGCIYEPWKASLVDQRAYGCVLGTDYPHRIVKHEVVHKENIKRMGAAYKVNREVRTGKEEESSFEEKSET | soluble |
